Data taken from the supplement of paper PMC12667976.
± gives the standard error.

B1: library; numbered along this chain (parent)
chain: MATDAALRRLLRLHRTEIAVAVDSAFPLLHALADHDVVPEDKFQETLHLKEKEGCPQAFHALLSWLLTQDSTAILDFWRVLFKDYNLERYGRLQPILDSFPKDVDLSQPRKGRKPPAVPKALVPPPRLPTKRKASEEARAAAPAALTPRGTASPGSQLKAKPPKKPESSAEQQRLPLGNGIQTMSASVQRAVAMSSGDVPGARGAVEGILIQQVFESGGSKKCIQVGGEFYTPSKFEDSGSGKNKARSSSGPKPLVRAKGAQGAAPGGGEARLGQQGSVPAPLALPSDPQLHQKNEDECAVCRDGGELICCDGCPRAFHLACLSPPLREIPSGTWRCSSCLQATVQEVQPRAEEPRPQEPPVETPLPPGLRSAGEEVRGPPGEPLAGMDTTLVYKHLPAPPSAAPLPGLDSSALHPLLCVGPEGQQNLAPGARCGVCGDGTDVLRCTHCAAAFHWRCHFPAGTSRPGTGLRCRSCSGDVTPAPVEGVLAPSPARLAPGPAKDDTASHEPALHRDDLESLLSEHTFDGILQWAIQSMARPAAPFPS

Variants of: B1
Assay: AIRE transcriptional activation functional score (insulin promoter-GFP; nonsense median 0, synonymous median 1) (normalised score); higher = higher AIRE activity (more reporter activation)
Settings: with insulin promoter-GFP reporter in HEK293
Procedure, shortened: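 Using Bxb1 recombinase, codon-optimized NNN-codon libraries for three AIRE regions were inserted into Flp-In T-REx HEK293 landing-pad cells with an insulin core promoter-GFP reporter. After integrants (mCherry+, BFP−) were sorted at day 7 and expanded for 7 days, the top 10% GFP and unselected integrant populations underwent tile-sequencing. Functional scores are wild-type-subtracted enrichments of variants in select over non-select samples. A cutoff of 10 counts per million in non-select applied, and values were rescaled (nonsense median 0, synonymous median 1) and averaged over biological replicates.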

Row | Variant | AIRE transcriptional activation functional score
1 | G219M | 0.958 ± 0.043
2 | G219W | 0.981 ± 0.012
3 | G219D | 0.836 ± 0.25
4 | G219H | 0.761 ± 0.11
5 | P119N | 1.04 ± 0.46
6 | D198W | -0.417 ± 0.22
7 | S156P | 0.405 ± 0.26
8 | V443P | 1.15 ± 0.18
9 | V443I | 0.968 ± 0.28
10 | F215M | 0.136 ± 0.083
11 | R272F | 1.09 ± 0.24
12 | G201R | 0.837 ± 0.16
13 | A413C | 1.42 ± 0.077
14 | A373L | 0.776 ± 0.5
15 | V479N | 1.08 ± 0.13
16 | L10K | -1.76 ± 0.75
17 | L10R | 0.701 ± 0.58
18 | L10P | 0.292 ± 0.34
19 | V362T | 0.915 ± 0.16
20 | P357D | 0.863 ± 0.065
21 | G379A | 0.877 ± 0.073
22 | G379N | 1.23 ± 0.044
23 | L341G | 1.11 ± 0.15
24 | A121W | 1.54 ± 0.14

Row | Variant | AIRE transcriptional activation functional score
25 | A121N | 1.1 ± 0.17
26 | H60V | -0.0783 ± 0.37
27 | S99N | 0.889 ± 0.3
28 | S195F | 0.0295 ± 0.044
29 | D503P | 0.73 ± 0.17
30 | C322T | 1.21 ± 0.25
31 | C322Q | 1.2 ± 0.043
32 | C322R | 0.999 ± 0.18
33 | P148A | 0.746 ± 0.41
34 | S248E | 0.474 ± 0.14
35 | S248W | 1.01 ± 0.026
36 | S248Y | 1.07 ± 0.27
37 | K294P | 1.21 ± 0.14
38 | W78Q | -2.24 ± 0.88
39 | Q173A | 0.957 ± 0.65
40 | S196E | 1.06 ± 0.28
41 | P483H | 1.13 ± 0.088
42 | K111D | -0.0433 ± 0.099
43 | D312T | 0.953 ± 0.33
44 | G306T | 1.15 ± 0.14
45 | G306Q | 1.14 ± 0.16
46 | G306E | 1.14 ± 0.19
47 | S234Y | 1.11 ± 0.11
48 | Q293F | 1.1 ± 0.32

Row | Variant | AIRE transcriptional activation functional score
49 | L29A | -0.0346 ± 0.34
50 | L29W | 0.224 ± 0.056
51 | L255P | 1.03 ± 0.26
52 | L444R | 1.17 ± 0.17
53 | L283T | 1.02 ± 0.36
54 | K165Q | 0.596 ± 0.87
55 | K165A | -0.0692 ± 0.52
56 | P200K | 0.571 ± 0.29
57 | P360Q | 0.786 ± 0.22
58 | P360H | 1.1 ± 0.13
59 | P315R | 0.972 ± 0.26
60 | K395Y | 1.47 ± 0.13
61 | K395E | 0.701 ± 0.21
62 | P416M | 1.55 ± 0.057
63 | D526P | -0.403 ± 0.092
64 | S412I | 0.868 ± 0.15
65 | V301N | 0.743 ± 0.3
66 | E136Q | 1.45 ± 0.34
67 | A191D | 0.948 ± 0.14
68 | F43Y | 0.108 ± 0.11
69 | P280A | 0.981 ± 0.21
70 | V348S | 0.865 ± 0.25
71 | K161R | 1.55 ± 0.51
72 | D478L | 0.949 ± 0.13

Row | Variant | AIRE transcriptional activation functional score
73 | C472M | -0.0949 ± 0.19
74 | V484Y | 0.975 ± 0.11
75 | V484E | 0.615 ± 0.12
76 | S474E | 1.16 ± 0.11
77 | R378I | 0.795 ± 0.28
78 | T232L | 1.1 ± 0.32
79 | T232R | 1.18 ± 0.2
80 | A33T | 0.426 ± 0.27
81 | T463Q | 0.155 ± 0.73
82 | T463P | 1.14 ± 0.17
83 | Q212D | -0.139 ± 0.13
84 | G382F | 1.11 ± 0.087
85 | A300N | 0.883 ± 0.33
86 | A300K | 1.08 ± 0.11
87 | A300E | 0.84 ± 0.4
88 | D439N | 1.07 ± 0.088
89 | V206D | 0.39 ± 0.25
90 | Q534G | 1.08 ± 0.3
91 | K50N | 1.59 ± 0.23
92 | P539Q | 0.339 ± 0.087
93 | P539G | 1.47 ± 0.27
94 | K102N | 1.44 ± 0.56
95 | Q342R | 0.876 ± 0.31
96 | D76Y | 0.302 ± 0.36

Row | Variant | AIRE transcriptional activation functional score
97 | R257C | -0.159 ± 0.18
98 | C311Y | 0.792 ± 0.094
99 | S324Y | 1.18 ± 0.15
100 | S324R | 0.621 ± 0.46
101 | L406K | 0.516 ± 0.18
102 | L406V | 0.908 ± 0.14
103 | H35R | -0.213 ± 0.43
104 | H35E | -0.848 ± 0.6
105 | H35M | -0.719 ± 0.084
106 | Y85N | -0.66 ± 0.27
107 | P380W | 1.39 ± 0.063
108 | Q225Y | -0.259 ± 0.17
109 | C446L | 0.0671 ± 0.16
110 | S332V | 1.3 ± 0.11
111 | S217E | 0.8 ± 0.034
112 | S217I | 0.549 ± 0.2
113 | S217Q | 0.502 ± 0.15
114 | A31S | 0.0612 ± 0.88
115 | L177Y | 1.89 ± 0.44
116 | P282I | 1.43 ± 0.19
117 | P282V | 1.38 ± 0.26
118 | P509I | 1.21 ± 0.37
119 | D410C | 1.12 ± 0.14
120 | D410L | 1.08 ± 0.15

Row | Variant | AIRE transcriptional activation functional score
121 | P368G | 1.05 ± 0.075
122 | P400Y | 1.69 ± 0.045
123 | P400S | 0.846 ± 0.29
124 | L32I | -0.434 ± 1.1
125 | L32S | -0.125 ± 0.35
126 | G267I | 1.18 ± 0.053
127 | G267S | 0.894 ± 0.4
128 | G197K | 0.734 ± 0.044
129 | F525Q | -0.479 ± 0.069
130 | L66Q | 0.233 ± 0.26
131 | T504C | 1.15 ± 0.041
132 | E347A | 1 ± 0.18
133 | C457G | 0.0376 ± 0.09
134 | Q108V | 0.8 ± 0.33
135 | D41Y | 1.79 ± 0.26
136 | P544S | 0.867 ± 0.39
137 | A258M | 0.409 ± 0.07
138 | A258L | 0.814 ± 0.13
139 | A541G | 0.847 ± 0.25
140 | E508G | 0.721 ± 0.26
141 | S24A | -0.0275 ± 0.75
142 | E40H | -0.15 ± 0.22
143 | H507G | 0.805 ± 0.084
144 | S239M | 1.69 ± 0.09

Row | Variant | AIRE transcriptional activation functional score
145 | S239I | 0.737 ± 0.38
146 | G251V | 1.22 ± 0.28
147 | G112I | 1.08 ± 0.67
148 | G112M | 0.488 ± 0.49
149 | G112P | 1.12 ± 0.67
150 | N86K | -0.0593 ± 0.28
151 | N86Y | 0.0334 ± 0.18
152 | I18G | 0.378 ± 0.28
153 | I18Y | -0.479 ± 0.28
154 | A6P | 0.153 ± 0.34
155 | P266D | 0.85 ± 0.068
156 | R132I | -0.0777 ± 0.2
157 | E485L | 1.11 ± 0.13
158 | Q189T | 0.669 ± 0.27
159 | F453L | 0.17 ± 0.11
160 | R12K | 1.84 ± 0.66
161 | R12G | 0.415 ± 0.41
162 | G274I | 0.929 ± 0.32
163 | D288R | 1.08 ± 0.34
164 | R371S | 0.653 ± 0.24
165 | R371V | 1.27 ± 0.094
166 | D84Q | 0.343 ± 0.5
167 | F59T | 0.102 ± 0.45
